Assay results published in patent publication US20090209022A1 (AstraZeneca / MedImmune, published 2009).

Target: the molecule itself
Assay: X-ray crystallography, partial model and electron density map

B1: H. influenzae pyrH UMP kinase (HI-1065), SeMet labelled, expressed from pSM145 (enzyme)
chain: GQPIYKRILLKLSGEALQGEDGLGIDPAILDRMAVEIKELVEMGVEVSVVLGGGNLFRGAKLAKAGMNRVVGDHMGMLATVMNGLAMRDSLFRADVNAKLMSAFQLNGICDTYNWSEAIKMLREKRVVIFSAGTGNPFFTTDSTACLRGIEIEADVVLKATKVDGVYDCDPAKNPDAKLYKNLSYAEVIDKELKVMDLSAFTLARDHGMPIRVFNMGKPGALRQVVTGTEEGTTIC
modifications: all methionines substituted with seleno-methionine (SeMet) in the crystallised protein
notes: Homohexamer (trimer of dimers); The crystal asymmetric unit holds eight chains: one hexamer and one dimer that gives a hexamer by crystallographic symmetry; The crystal also holds GTP (modelled as GDP) and phosphate
binding result: binds
